Assay results taken from the supplement of paper PMC5998384.

How the values were obtained:
HeLa Kyoto [1] = assay: solubility in G1/S (NP-40 vs SDS abundance) (log2 ratio); higher = more soluble; conditions: cell cycle stage: G1/S
HeLa Kyoto [2] = assay: melting temperature (median over replicates), in situ; higher = more thermally stable
HeLa Kyoto [3] = assay: solubility change mitosis vs G1/S (difference of NP-40 vs SDS log2 ratios) (log2 ratio difference); higher = more soluble in mitosis
HeLa Kyoto [4] = assay: thermal stability score vs G1/S (z-score of summed log2 fold changes over temperatures); higher = more thermally stable than in G1/S
[5] = cell cycle stage: early G1 (4.5 h after nocodazole release)
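Wherever melting temperature (median over replicates), in situ is given: HeLa Kyoto cells synchronized by double thymidine or nocodazole block, proteins quantified by TMT10plex mass spectrometry, three independent biological replicates.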
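Wherever solubility change mitosis vs G1/S (difference of NP-40 vs SDS log2 ratios) is given: synchronized HeLa Kyoto cells (double thymidine block for G1/S, nocodazole release for mitosis), protein amounts in NP-40 versus SDS lysates quantified by mass spectrometry, three biological replicates.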
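Wherever solubility in G1/S (NP-40 vs SDS abundance) is given: HeLa Kyoto cells arrested at G1/S by double thymidine block, proteins quantified by TMT10plex mass spectrometry in mild NP-40 versus SDS extracts, three biological replicates.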
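Wherever thermal stability score vs G1/S (z-score of summed log2 fold changes over temperatures) is given: synchronized HeLa Kyoto cells, proteins quantified by TMT10plex mass spectrometry, three biological replicates, mitosis taken 0.5 h after nocodazole release, G1/S directly after double thymidine block.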

Row | Sequence | solubility in G1/S (log2) (HeLa Kyoto [1]) | melting temperature (HeLa Kyoto [2]; cell cycle stage: G1/S) | melting temperature (HeLa Kyoto [2]; cell cycle stage: mitosis) | solubility change mitosis (log2) (HeLa Kyoto [3]) | thermal stability score (HeLa Kyoto [4]; [5]) | thermal stability score (HeLa Kyoto [4]; cell cycle stage: mitosis)
1 | MSRRALRRLRGEQRGQEPLGPGALHFDLRDDDDAEEEGPKRELGVRRPGGAGKEGVRVNNRFELINIDDLEDDPVVNGERSGCALTDAVAPGNKGRGQRGNTESKTDGDDTETVPSEQSHASGKLRKKKKKQKNKKSSTGEASENGLEDIDRILERIEDSTGLNRPGPAPLSSRKHVLYVEHRHLNPDTELKRYFGARAILGEQRPRQRQRVYPKCTWLTTPKSTWPRYSKPGLSMRLLESKKGLSFFAFEHSEEYQQAQHKFLVAVESMEPNNIVVLLQTSPYHVDSLLQLSDACRFQEDQEMARDLVERALYSMECAFHPLFSLTSGACRLDYRRPENRSFYLALYKQMSFLEKRGCPRTALEYCKLILSLEPDEDPLCMLLLIDHLALRARNYEYLIRLFQEWEAHRNLSQLPNFAFSVPLAYFLLSQQTDLPECEQSSARQKASLLIQQALTMFPGVLLPLLESCSVRPDASVSSHRFFGPNAEISQPPALSQLVNLYLGRSHFLWKEPATMSWLEENVHEVLQAVDAGDPAVEACENRRKVLYQRAPRNIHRHVILSEIKEAVAALPPDVTTQSVMGFDPLPPSDTIYSYVRPERLSPISHGNTIALFFRSLLPNYTMEGERPEEGVAGGLNRNQGLNRLMLAVRDMMANFHLNDLEAPHEDDAEGEGEWD [TCF25] | 0.0319 | 49.4 °C | 48.4 °C | 0.0389 | 0.666 | 0.63
2 | MSSARFDSSDRSAWYMGPVSRQEAQTRLQGQRHGMFLVRDSSTCPGDYVLSVSENSRVSHYIINSLPNRRFKIGDQEFDHLPALLEFYKIHYLDTTTLIEPAPRYPSPPMGSVSAPNLPTAEDNLEYVRTLYDFPGNDAEDLPFKKGEILVIIEKPEEQWWSARNKDGRVGMIPVPYVEKLVRSSPHGKHGNRNSNSYGIPEPAHAYAQPQTTTPLPAVSGSPGAAITPLPSTQNGPVFAKAIQKRVPCAYDKTALALEVGDIVKVTRMNINGQWEGEVNGRKGLFPFTHVKIFDPQNPDENE [CRKL] | 0.543 | 53 °C | 53.4 °C | 0.0605 | -0.327 | -0.418
3 | MSSEEGKLFVGGLNFNTDEQALEDHFSSFGPISEVVVVKDRETQRSRGFGFITFTNPEHASVAMRAMNGESLDGRQIRVDHAGKSARGTRGGGFGAHGRGRSYSRGGGDQGYGSGRYYDSRPGGYGYGYGRSRDYNGRNQGGYDRYSGGNYRDNYDN [RBM3] | 0.11 | 54.2 °C | 52.7 °C | 0.436 | -2.01 | -4.74
4 | MSSEPPPPPQPPTHQASVGLLDTPRSRERSPSPLRGNVVPSPLPTRRTRTFSATVRASQGPVYKGVCKCFCRSKGHGFITPADGGPDIFLHISDVEGEYVPVEGDEVTYKMCSIPPKNEKLQAVEVVITHLAPGTKHETWSGHVISS [CARHSP1] | 0.691 | 54.7 °C | 55.2 °C | 0.089 | -0.479 | -0.699
5 | MSSLAVRDPAMDRSLRSVFVGNIPYEATEEQLKDIFSEVGSVVSFRLVYDRETGKPKGYGFCEYQDQETALSAMRNLNGREFSGRALRVDNAASEKNKEELKSLGPAAPIIDSPYGDPIDPEDAPESITRAVASLPPEQMFELMKQMKLCVQNSHQEARNMLLQNPQLAYALLQAQVVMRIMDPEIALKILHRKIHVTPLIPGKSQSVSVSGPGPGPGPGLCPGPNVLLNQQNPPAPQPQHLARRPVKDIPPLMQTPIQGGIPAPGPIPAAVPGAGPGSLTPGGAMQPQLGMPGVGPVPLERGQVQMSDPRAPIPRGPVTPGGLPPRGLLGDAPNDPRGGTLLSVTGEVEPRGYLGPPHQGPPMHHASGHDTRGPSSHEMRGGPLGDPRLLIGEPRGPMIDQRGLPMDGRGGRDSRAMETRAMETEVLETRVMERRGMETCAMETRGMEARGMDARGLEMRGPVPSSRGPMTGGIQGPGPINIGAGGPPQGPRQVPGISGVGNPGAGMQGTGIQGTGMQGAGIQGGGMQGAGIQGVSIQGGGIQGGGIQGASKQGGSQPSSFSPGQSQVTPQDQEKAALIMQVLQLTADQIAMLPPEQRQSILILKEQIQKSTGAS [CSTF2T] | -0.00517 | 52.6 °C | 51.9 °C | 0.114 | -0.131 | 0.0128
6 | MSSNCTSTTAVAVAPLSASKTKTKKKHFVCQKVKLFRASEPILSVLMWGVNHTINELSNVPVPVMLMPDDFKAYSKIKVDNHLFNKENLPSRFKFKEYCPMVFRNLRERFGIDDQDYQNSVTRSAPINSDSQGRCGTRFLTTYDRRFVIKTVSSEDVAEMHNILKKYHQFIVECHGNTLLPQFLGMYRLTVDGVETYMVVTRNVFSHRLTVHRKYDLKGSTVAREASDKEKAKDLPTFKDNDFLNEGQKLHVGEESKKNFLEKLKRDVEFLAQLKIMDYSLLVGIHDVDRAEQEEMEVEERAEDEECENDGVGGNLLCSYGTPPDSPGNLLSFPRFFGPGEFDPSVDVYAMKSHESSPKKEVYFMAIIDILTPYDTKKKAAHAAKTVKHGAGAEISTVNPEQYSKRFNEFMSNILT [PIP4K2B] | 0.335 | 50.1 °C | 49 °C | -0.163 | 0.758 | -0.395
